Data on one substance can be found in publication PMC7878476.

The target of this test is DnaJB8ΔCTD (human). The test can be described thus: cross-linking; HspA1A in 1× PBS pH 7.4 mixed with 40 μM DnaJB8, JD_(1–82), DnaJB8ΔCTD or DnaJB8F→S; 37 °C, ADH/DMTMM; XL–MS in triplicate.

Sequence of human Hsp70 (HspA1A) (P0DMV8 whole entry): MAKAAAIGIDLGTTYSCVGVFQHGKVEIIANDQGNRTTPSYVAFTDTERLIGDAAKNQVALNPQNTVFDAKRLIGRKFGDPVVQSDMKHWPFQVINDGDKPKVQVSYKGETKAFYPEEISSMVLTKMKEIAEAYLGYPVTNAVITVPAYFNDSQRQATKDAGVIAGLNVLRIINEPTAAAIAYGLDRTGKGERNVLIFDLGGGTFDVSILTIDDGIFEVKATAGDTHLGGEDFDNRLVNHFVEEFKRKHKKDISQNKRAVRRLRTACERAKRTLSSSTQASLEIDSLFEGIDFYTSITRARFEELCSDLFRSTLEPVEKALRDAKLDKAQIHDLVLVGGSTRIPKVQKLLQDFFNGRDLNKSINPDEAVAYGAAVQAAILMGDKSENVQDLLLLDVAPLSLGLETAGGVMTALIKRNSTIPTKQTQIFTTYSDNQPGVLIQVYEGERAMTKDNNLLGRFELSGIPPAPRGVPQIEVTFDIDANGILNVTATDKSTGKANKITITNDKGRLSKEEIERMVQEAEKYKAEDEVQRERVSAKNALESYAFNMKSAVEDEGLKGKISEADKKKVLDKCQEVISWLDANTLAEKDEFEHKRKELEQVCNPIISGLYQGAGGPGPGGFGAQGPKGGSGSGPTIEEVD

The substance “human Hsp70 (HspA1A) (from UniProt P0DMV8 1-641) (natural protein)” returned a total cross-links between the JD and HspA1A across three XL–MS experiments of 14 cross-links.
